From doi:10.1101/2024.03.19.585775, “Septin filament assembly assist the lateral organization of membranes” (bioRxiv, 2024)
Several values for one entry are separate records, joined by “and”; a condition that tells them apart may be missing. Identical values can stand only once.

Columns and labels:
[1] = biological target: the molecule itself; experiment: atomic force microscopy; octamers to filaments; 5 nM septin-GFP incubated overnight on 2.5% mol PI(4,5)P2 supported lipid bilayers; imaged at room temperature in 20 mM Tris-HCl pH 8, 2 mM MgCl2, 150 mM NaCl
[2] = biological target: the molecule itself; experiment: negative-stain transmission electron microscopy; octamers to filaments; 100 nM (legend; methods: 0.005 mg/ml) GFP-tagged septin hetero-octamers on lipid monolayers of 77.5% Egg-PC, 20% Liver-PI, 2.5% Brain-PI(4,5)P2; 20 mM Tris-HCl pH 8, 2 mM MgCl2, 400 µM GTP, 150 mM NaCl; overnight at 4 °C; 2% uranyl acetate

Protein | stoichiometry N [1] [octamers] | stoichiometry N [2]
wild-type septin-GFP hetero-octamer (Cdc11-Cdc12-Cdc3-Cdc10-Cdc10-Cdc3-Cdc12-Cdc11) (complex, S. cerevisiae, Cdc11, septin of S. cerevisiae; Cdc12, septin of S. cerevisiae; Cdc3, septin of S. cerevisiae; Cdc10, septin of S. cerevisiae; Tag ends are read from the printed construct names MBP-Cdc12/(6xHis)Cdc3-GFP; The purified complex is named without MBP; also called GFP-tagged septin octamers; wild-type septin-GFP complexes; source: E. coli BL21 (DE3) Rosetta, co-expressed from two plasmids, purified …) chain 1: MSGIIDASSALRKRKHLKRGITFTVMIVGQSGSGRSTFINTLCGQQVVDTSTTILLPTDTSTEIDLQLREETVELEDDEGVKIQLNIIDTPGFGDSLDNSPSFEIISDYIRHQYDEILLEESRVRRNPRFKDGRVHCCLYLINPTGHGLKEIDVEFIRQLGSLVNIIPVISKSDSLTRDELKLNKKLIMEDIDRWNLPIYNFPFDEDEISDEDYETNMYLRTLLPFAIIGSNEVYEMGGDVGTIRGRKYPWGILDVEDSSISDFVILRNALLISHLHDLKNYTHEILYERYRTEALSGESVAAESIRPNLTKLNGSSSSSTTTRRNTNPFKQSNNINNDVLNPASDMHGQSTGENNETYMTREEQIRLEEERLKAFEERVQQELLLKRQELLQREKELREIEARLEKEAKIKQEE chain 2: MSAATATAAPVPPPVGISNLPNQRYKIVNEEGGTFTVMLCGESGLGKTTFINTLFQTVLKRADGQQHRQEPIRKTVEIDITRALLEEKHFELRVNVIDTPGFGDNVNNNKAWQPLVDFIDDQHDSYMRQEQQPYRTKKFDLRVHAVLYFIRPTGHGLKPIDIETMKRLSTRANLIPVIAKADTLTAQELQQFKSRIRQVIEAQEIRIFTPPLDADSKEDAKSGSNPDSAAVEHARQLIEAMPFAIVGSEKKFDNGQGTQVVARKYPWGLVEIENDSHCDFRKLRALLLRTYLLDLISTTQEMHYETYRRLRLEGHENTGEGNEDFTLPAIAPARKLSHNPRYKEEENALKKYFTDQVKAEEQRFRQWEQNIVNERIRLNGDLEEIQGKVKKLEEQVKSLQVKKSHLK chain 3: MSLKEEQVSIKQDPEQEERQHDQFNDVQIKQESQDHDGVDSQYTNGTQNDDSERFEAAESDVKVEPGLGMGITSSQSEKGQVLPDQPEIKFIRRQINGYVGFANLPKQWHRRSIKNGFSFNLLCVGPDGIGKTTLMKTLFNNDDIEANLVKDYEEELANDQEEEEGQGEGHENQSQEQRHKVKIKSYESVIEENGVKLNLNVIDTEGFGDFLNNDQKSWDPIIKEIDSRFDQYLDAENKINRHSINDKRIHACLYFIEPTGHYLKPLDLKFMQSVYEKCNLIPVIAKSDILTDEEILSFKKTIMNQLIQSNIELFKPPIYSNDDAENSHLSERLFSSLPYAVIGSNDIVENYSGNQVRGRSYPWGVIEVDNDNHSDFNLLKNLLIKQFMEELKERTSKILYENYRSSKLAKLGIKQDNSVFKEFDPISKQQEEKTLHEAKLAKLEIEMKTVFQQKVSEKEKKLQKSETELFARHKEMKEKLTKQLKALEDKKKQLELSINSASPNVNHSPVPTKKKGFLR chain 4: MDPLSSVQPASYVGFDTITNQIEHRLLKKGFQFNIMVVGQSGLGKSTLINTLFASHLIDSATGDDISALPVTKTTEMKISTHTLVEDRVRLNINVIDTPGFGDFIDNSKAWEPIVKYIKEQHSQYLRKELTAQRERFITDTRVHAILYFLQPNGKELSRLDVEALKRLTEIANVIPVIGKSDTLTLDERTEFRELIQNEFEKYNFKIYPYDSEELTDEELELNRSVRSIIPFAVVGSENEIEINGETFRGRKTRWSAINVEDINQCDFVYLREFLIRTHLQDLIETTSYIHYEGFRARQLIALKENANSRSSAHMSSNAIQR | 5 | 2 octamers and 3 octamers
septin-GFP hetero-octamer containing ΔAH-Cdc12 (C-terminal deletion of Cdc12 residues 390-407) (complex, S. cerevisiae, Cdc11, septin of S. cerevisiae; Cdc12, septin of S. cerevisiae; Cdc3, septin of S. cerevisiae; Cdc10, septin of S. cerevisiae; also called ΔAH-Cdc12 mutant; ΔAH mutant; source: E. coli BL21 (DE3) Rosetta, co-expressed, purified (amylose resin, Ni-NTA-agarose), same protocol as wild type; not shown: GFP, C-terminal, kept; copies: 2 + 2 + 2 + 2) chain 1: MSGIIDASSALRKRKHLKRGITFTVMIVGQSGSGRSTFINTLCGQQVVDTSTTILLPTDTSTEIDLQLREETVELEDDEGVKIQLNIIDTPGFGDSLDNSPSFEIISDYIRHQYDEILLEESRVRRNPRFKDGRVHCCLYLINPTGHGLKEIDVEFIRQLGSLVNIIPVISKSDSLTRDELKLNKKLIMEDIDRWNLPIYNFPFDEDEISDEDYETNMYLRTLLPFAIIGSNEVYEMGGDVGTIRGRKYPWGILDVEDSSISDFVILRNALLISHLHDLKNYTHEILYERYRTEALSGESVAAESIRPNLTKLNGSSSSSTTTRRNTNPFKQSNNINNDVLNPASDMHGQSTGENNETYMTREEQIRLEEERLKAFEERVQQELLLKRQELLQREKELREIEARLEKEAKIKQEE chain 2: MSAATATAAPVPPPVGISNLPNQRYKIVNEEGGTFTVMLCGESGLGKTTFINTLFQTVLKRADGQQHRQEPIRKTVEIDITRALLEEKHFELRVNVIDTPGFGDNVNNNKAWQPLVDFIDDQHDSYMRQEQQPYRTKKFDLRVHAVLYFIRPTGHGLKPIDIETMKRLSTRANLIPVIAKADTLTAQELQQFKSRIRQVIEAQEIRIFTPPLDADSKEDAKSGSNPDSAAVEHARQLIEAMPFAIVGSEKKFDNGQGTQVVARKYPWGLVEIENDSHCDFRKLRALLLRTYLLDLISTTQEMHYETYRRLRLEGHENTGEGNEDFTLPAIAPARKLSHNPRYKEEENALKKYFTDQVKAEEQRFRQWEQNIVNERIRLNGDLEEIQGKV chain 3: MSLKEEQVSIKQDPEQEERQHDQFNDVQIKQESQDHDGVDSQYTNGTQNDDSERFEAAESDVKVEPGLGMGITSSQSEKGQVLPDQPEIKFIRRQINGYVGFANLPKQWHRRSIKNGFSFNLLCVGPDGIGKTTLMKTLFNNDDIEANLVKDYEEELANDQEEEEGQGEGHENQSQEQRHKVKIKSYESVIEENGVKLNLNVIDTEGFGDFLNNDQKSWDPIIKEIDSRFDQYLDAENKINRHSINDKRIHACLYFIEPTGHYLKPLDLKFMQSVYEKCNLIPVIAKSDILTDEEILSFKKTIMNQLIQSNIELFKPPIYSNDDAENSHLSERLFSSLPYAVIGSNDIVENYSGNQVRGRSYPWGVIEVDNDNHSDFNLLKNLLIKQFMEELKERTSKILYENYRSSKLAKLGIKQDNSVFKEFDPISKQQEEKTLHEAKLAKLEIEMKTVFQQKVSEKEKKLQKSETELFARHKEMKEKLTKQLKALEDKKKQLELSINSASPNVNHSPVPTKKKGFLR chain 4: MDPLSSVQPASYVGFDTITNQIEHRLLKKGFQFNIMVVGQSGLGKSTLINTLFASHLIDSATGDDISALPVTKTTEMKISTHTLVEDRVRLNINVIDTPGFGDFIDNSKAWEPIVKYIKEQHSQYLRKELTAQRERFITDTRVHAILYFLQPNGKELSRLDVEALKRLTEIANVIPVIGKSDTLTLDERTEFRELIQNEFEKYNFKIYPYDSEELTDEELELNRSVRSIIPFAVVGSENEIEINGETFRGRKTRWSAINVEDINQCDFVYLREFLIRTHLQDLIETTSYIHYEGFRARQLIALKENANSRSSAHMSSNAIQR |  | ~4 octamers
septin-GFP hetero-octamer containing ΔCTE-Cdc12 (deletion of the C-terminal extension of Cdc12, residues 339-407) (complex, S. cerevisiae, Cdc11, septin of S. cerevisiae; Cdc12, septin of S. cerevisiae; Cdc3, septin of S. cerevisiae; Cdc10, septin of S. cerevisiae; also called ΔCTE-Cdc12 mutant; Cdc12 mutants; source: E. coli BL21 (DE3) Rosetta, co-expressed, purified (amylose resin, Ni-NTA-agarose), same protocol as wild type; not shown: GFP, C-terminal, kept; copies: 2 + 2 + 2 + 2) chain 1: MSGIIDASSALRKRKHLKRGITFTVMIVGQSGSGRSTFINTLCGQQVVDTSTTILLPTDTSTEIDLQLREETVELEDDEGVKIQLNIIDTPGFGDSLDNSPSFEIISDYIRHQYDEILLEESRVRRNPRFKDGRVHCCLYLINPTGHGLKEIDVEFIRQLGSLVNIIPVISKSDSLTRDELKLNKKLIMEDIDRWNLPIYNFPFDEDEISDEDYETNMYLRTLLPFAIIGSNEVYEMGGDVGTIRGRKYPWGILDVEDSSISDFVILRNALLISHLHDLKNYTHEILYERYRTEALSGESVAAESIRPNLTKLNGSSSSSTTTRRNTNPFKQSNNINNDVLNPASDMHGQSTGENNETYMTREEQIRLEEERLKAFEERVQQELLLKRQELLQREKELREIEARLEKEAKIKQEE chain 2: MSAATATAAPVPPPVGISNLPNQRYKIVNEEGGTFTVMLCGESGLGKTTFINTLFQTVLKRADGQQHRQEPIRKTVEIDITRALLEEKHFELRVNVIDTPGFGDNVNNNKAWQPLVDFIDDQHDSYMRQEQQPYRTKKFDLRVHAVLYFIRPTGHGLKPIDIETMKRLSTRANLIPVIAKADTLTAQELQQFKSRIRQVIEAQEIRIFTPPLDADSKEDAKSGSNPDSAAVEHARQLIEAMPFAIVGSEKKFDNGQGTQVVARKYPWGLVEIENDSHCDFRKLRALLLRTYLLDLISTTQEMHYETYRRLRLEGHENTGEGNEDFTLPAIAPARKLSH chain 3: MSLKEEQVSIKQDPEQEERQHDQFNDVQIKQESQDHDGVDSQYTNGTQNDDSERFEAAESDVKVEPGLGMGITSSQSEKGQVLPDQPEIKFIRRQINGYVGFANLPKQWHRRSIKNGFSFNLLCVGPDGIGKTTLMKTLFNNDDIEANLVKDYEEELANDQEEEEGQGEGHENQSQEQRHKVKIKSYESVIEENGVKLNLNVIDTEGFGDFLNNDQKSWDPIIKEIDSRFDQYLDAENKINRHSINDKRIHACLYFIEPTGHYLKPLDLKFMQSVYEKCNLIPVIAKSDILTDEEILSFKKTIMNQLIQSNIELFKPPIYSNDDAENSHLSERLFSSLPYAVIGSNDIVENYSGNQVRGRSYPWGVIEVDNDNHSDFNLLKNLLIKQFMEELKERTSKILYENYRSSKLAKLGIKQDNSVFKEFDPISKQQEEKTLHEAKLAKLEIEMKTVFQQKVSEKEKKLQKSETELFARHKEMKEKLTKQLKALEDKKKQLELSINSASPNVNHSPVPTKKKGFLR chain 4: MDPLSSVQPASYVGFDTITNQIEHRLLKKGFQFNIMVVGQSGLGKSTLINTLFASHLIDSATGDDISALPVTKTTEMKISTHTLVEDRVRLNINVIDTPGFGDFIDNSKAWEPIVKYIKEQHSQYLRKELTAQRERFITDTRVHAILYFLQPNGKELSRLDVEALKRLTEIANVIPVIGKSDTLTLDERTEFRELIQNEFEKYNFKIYPYDSEELTDEELELNRSVRSIIPFAVVGSENEIEINGETFRGRKTRWSAINVEDINQCDFVYLREFLIRTHLQDLIETTSYIHYEGFRARQLIALKENANSRSSAHMSSNAIQR |  | ~4 octamers
